Laboratory results as given in US20170145113A1 (Genentech, published 2017).

Tests used:
[1] = target: T1, His-tagged human HtrA1 protease domain (human, UniProt Q92743 161-367); experiment: SPR (BIACORE T100), single-cycle kinetics; biotinylated HtrA1-PD-His on streptavidin, Fab injected
T1 construct: His-tagged protease domain; also called huHtrA1-PD-His; huHtrA1-PD
From the text: (§1) To determine the binding affinity of anti-HtrA1 Fabs by single-cycle kinetics, (SPR) measurement with a BIACORE™ T100 instrument was used. Briefly, a series S sensor chip CM5 was activated with 1-ethyl-3-(3-dimethylamino-propyl)carbodiimide hydrochloride (EDC) and N-hydroxysuccinimide (NHS) reagents according to the supplier's instructions, and streptavidin (Pierce) was coupled to achieve approximately 2500 response units (RU), followed by blocking un-reacted groups with 1 M ethanolamine.
(§2) For kinetics measurements, biotinylated human or murine HtrA1-PD-His was first injected at 10 μl/min flow rate to capture approximately 150 RU at 3 different flow cells (FC), except for FC1 (which served as a reference), and then 5-fold serial dilutions of anti-HtrA1 Fab in HBS-P buffer (0.01M HEPES pH 7.4, 0.15 M NaCl, 0.005% surfactant P20) from low (0.48 nM) to high (300 nM) were injected (flow rate: 30 μl/min) one after the other in the same cycle with no regeneration between injections. The sensorgram was recorded and subject to reference and buffer subtraction before evaluating by BIACORE™ T100 Evaluation Software (version 2.0). Association rates (kₒₙ) and dissociation rates (koff) were calculated using a simple one-to-one Langmuir binding model. The equilibrium dissociation constant (KD) was calculated as the ratio koff/kₒₙ.

[2] = target: T2, His-tagged recombinant murine HtrA1 protease domain (murine, UniProt Q9R118 156-367); experiment: as above
T2 construct: His-tagged protease domain; also called muHtrA1-PD-His; muHtrA1-PD
From the text: as §1, §2

[3] = target: T1, His-tagged human HtrA1 protease domain; experiment: SPR (BIACORE), Fab
[4] = target: T1, His-tagged human HtrA1 protease domain; experiment: BIACORE SPR, single cycle kinetic analysis; ligand streptavidin-captured biotin human HtrA1, analyte Fab
From the text: as §1, §2

[5] = target: T2, His-tagged recombinant murine HtrA1 …; experiment: BIACORE SPR, single cycle kinetic analysis; ligand streptavidin-captured biotin murine HtrA1, analyte Fab
From the text: as §1, §2

[6] = target: T1, His-tagged human HtrA1 protease domain; experiment: phage competition ELISA (Fab on phage, HtrA1 in solution)
Method: (§3) MAXISORP™ microliter plates were coated with human HtrA1-PD-His at 2 μg/ml in PBS for 2 h and then blocked with PBST buffer (0.5% BSA and 0.05% TWEEN®20 in PBS) for 1 h at room temperature. Phage purified from culture supernatants were incubated with serially-diluted human or murine HtrA1 in PBST buffer in a tissue-culture microtiter plate for 1 h, after which 80 μl of the mixture was transferred to human HtrA1-coated wells for 15 min to capture unbound phage. The plate was washed with PBT buffer (0.05% TWEEN®20 in PBS), and HRP-conjugated anti-M13 antibody (Amersham Pharmacia Biotech) was added (1:5000 in PBST buffer) for 40 min. The plate was washed with PBT buffer and developed by adding tetramethylbenzidine substrate (Kirkegaard and Perry Laboratories, Gaithersburg, Md.). The absorbance at 450 nm was plotted as a function of target concentration in solution to determine phage IC50.

[7] = target: T2, His-tagged recombinant murine HtrA1 …; experiment: as above
Method: as §3

[8] = target: T1, His-tagged human HtrA1 protease domain; experiment: BIACORE SPR, Fab analyte, Human HtrA1-PD (N=2)
[9] = target: T1, His-tagged human HtrA1 protease domain; experiment: SPR (BIACORE T200), huHtrA1-PD-His captured by anti-His, Fab injected
Method: These combination mutants included both a variant light chain and a variant heavy chain. BIACORE™ kinetic analysis was performed (as described below in Section C) using the combination mutants.
(§4) To determine the binding affinity of selected Fab variants for HtrA1, SPR measurement with a BIACORE™ T200 instrument was performed. Briefly, a series S sensor chip CM5 was activated with 1-EDC and NHS reagents according to the supplier's instructions, and anti-His antibody was coupled to achieve 200-300 response units (RU), then following by blocking un-reacted groups with 1 M ethanolamine. For kinetics measurements, approximately 5 nM of huHtrA1-PD-His was first injected at 10 μl/min flow rate to capture approximately 100 RU at 2 different flow cells (FC), except for FC1 (which served as a reference). Next, 5-fold serial dilutions of Fab in HBS-P buffer (0.01M HEPES pH 7.4, 0.15M NaCl, 0.005% surfactant P20) from low (0.8 nM) to high (50 nM) were injected (flow rate: 30 μl/min). The binding responses on HtrA1 were corrected by subtracting of RU from a blank flow cell. The sensorgram was recorded and subject to reference and buffer subtraction before evaluating by BIACORE® T200 Evaluation Software (version 2.0). Association rates (kₒₙ) and dissociation rates (koff) were calculated using a simple one-to-one Langmuir binding model. The equilibrium dissociation constant (KD) was calculated as the ratio of koff/kₒₙ.

[10] = target: T1, His-tagged human HtrA1 protease domain; experiment: cell-based or functional assay
[11] = target: T1, His-tagged human HtrA1 protease domain; experiment: BIACORE T200 SPR; Fab analyte over huHtrA1-PD-His captured by anti-His antibody
Method: as §4

[12] = target: T1, His-tagged human HtrA1 protease domain; experiment: SPR (BIACORE T200), huHtrA1-PD-His captured by anti-His, Fab injected; remark: listed apart in the source
[13] = target: T1, His-tagged human HtrA1 protease domain; experiment: BIACORE SPR, single-cycle kinetics; Fab analyte over captured human HtrA1
[14] = target: T1, His-tagged human HtrA1 protease domain; experiment: cell-based or functional assay; remark: listed apart in the source
[15] = target: T1, His-tagged human HtrA1 protease domain; experiment: BIACORE SPR, single-cycle kinetics; Fab analyte over captured human HtrA1; remark: listed apart in the source
[16] = target: T1, His-tagged human HtrA1 protease domain; experiment: BIACORE SPR analysis, Fab format
Method: as §4

[17] = target: T1, His-tagged human HtrA1 protease domain; experiment: SPR (BIACORE), Fab; remark: listed apart in the source
From the text: (§5) To address W91 oxidation in HVR-L3, 2 variants (LC-W91Y and LC-W91L) were generated and produced as Fabs for BIACORE™ SPR binding analysis.
as §1, §2

[18] = target: T2, His-tagged recombinant murine HtrA1 …; experiment: SPR (BIACORE), Fab
From the text: as §5, §1, §2

[19] = target: T3, murine HtrA4 protease domain (murine, UniProt A2RT60 160-371, limits assumed); experiment: ELISA, hybridoma clone
T3 construct: domain: PD (protease domain); also called muHtrA4-PD; murine HtrA4-PD
T3 sequence (looked up): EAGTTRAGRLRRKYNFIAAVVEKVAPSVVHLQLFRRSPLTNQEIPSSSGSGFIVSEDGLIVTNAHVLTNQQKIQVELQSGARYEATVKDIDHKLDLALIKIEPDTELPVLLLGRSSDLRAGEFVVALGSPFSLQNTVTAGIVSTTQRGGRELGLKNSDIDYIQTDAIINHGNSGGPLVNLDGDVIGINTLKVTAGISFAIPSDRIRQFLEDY

[20] = target: purified full-length human HtrA1 (human, UniProt Q92743 23-480); experiment: cell-based or functional assay
Sequence of purified full-length human HtrA1 (Q92743 23-480): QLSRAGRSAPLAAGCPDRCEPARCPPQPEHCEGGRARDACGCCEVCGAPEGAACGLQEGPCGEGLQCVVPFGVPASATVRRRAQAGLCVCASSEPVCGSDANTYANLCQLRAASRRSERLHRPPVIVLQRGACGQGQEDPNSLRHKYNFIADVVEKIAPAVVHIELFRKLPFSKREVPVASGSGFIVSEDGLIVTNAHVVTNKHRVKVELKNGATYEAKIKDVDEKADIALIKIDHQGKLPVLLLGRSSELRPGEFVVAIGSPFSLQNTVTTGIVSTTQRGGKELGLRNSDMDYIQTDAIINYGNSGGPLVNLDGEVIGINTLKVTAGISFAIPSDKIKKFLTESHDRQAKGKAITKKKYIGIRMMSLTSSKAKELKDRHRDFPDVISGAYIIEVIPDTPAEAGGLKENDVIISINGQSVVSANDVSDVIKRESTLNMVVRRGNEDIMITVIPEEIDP

[21] = target: purified full-length murine HtrA1 (murine, UniProt Q9R118 23-480); experiment: cell-based or functional assay

T1 sequence (Q92743 other isoform, or with tags, fused parts or gaps limits assumed): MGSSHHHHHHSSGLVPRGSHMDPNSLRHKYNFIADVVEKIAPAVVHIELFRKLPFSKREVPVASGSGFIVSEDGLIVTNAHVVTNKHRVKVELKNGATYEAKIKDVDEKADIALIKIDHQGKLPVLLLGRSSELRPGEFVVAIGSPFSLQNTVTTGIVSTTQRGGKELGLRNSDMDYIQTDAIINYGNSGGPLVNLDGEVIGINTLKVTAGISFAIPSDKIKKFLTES

B1: h19B12.v1 Fab (Fab, V domains shown)
VH: EVQLVESGGGLVQPGGSLRLSCAASGFTFSSYIMSWVRQAPGKGLEWVAYISNGGGTTYYSDTIKGRFTISRDNSKNTLYLQMNSLRAEDTAVYYCARQNFRSDGSSMDYWGQGTLVTVSS
VL: DIVMTQSPDSLAVSLGERATINCRASESVDSYGKSFMHWYQQKPGQPPKLLIYLASKLESGVPDRFSGSGSGTDFTLTISSLQAEDVAVYYCQQNNEDPYTFGQGTKVEIK
notes: Tested in Fab format
- Kd [1]: 10.7 nM
- koff [1]: 0.0016 s⁻¹
- kon [1]: 150000 M⁻¹ s⁻¹
- Kd [2]: 7.6 nM
- koff [2]: 0.00091 s⁻¹
- kon [2]: 120000 M⁻¹ s⁻¹
- fold improvement of KD against m19B12 [3]: ~2 fold
- Kd [4]: 24 nM
- koff [4]: 0.00345 s⁻¹
- kon [4]: 144000 M⁻¹ s⁻¹
- Kd [5]: 6.65 nM
- koff [5]: 0.00134 s⁻¹
- kon [5]: 201000 M⁻¹ s⁻¹

B2: h15H6.v1 LC-S49Y variant (Fab, V domains shown)
VH: EVQLVQSGAEVKKPGASVKVSCKASGYTFTDSEMHWVRQAPGQGLEWIGGVDPETDGAAYNQKFKGRATLTADTSTSTAYLELSSLRSEDTAVYYCTRGYDYDYALDYWGQGTLVTVSS
VL: DIQMTQSPSSLSASVGDRVTITCRASSSVNFIHWYQQKPGKAPKPWIYATSNLASGVPSRFSGSGSGTDFTLTISSLQPEDFATYYCQQWSSNPWTFGQGTKVEIK
notes: built as h15H6.v1
- fold reduction of binding against h15H6.v1 [6]: ~10 fold
- fold reduction of binding against h15H6.v1 [7]: ~10 fold

B3: h15H6.v1 LC-W47L variant (Fab, V domains shown)
VH: EVQLVQSGAEVKKPGASVKVSCKASGYTFTDSEMHWVRQAPGQGLEWIGGVDPETDGAAYNQKFKGRATLTADTSTSTAYLELSSLRSEDTAVYYCTRGYDYDYALDYWGQGTLVTVSS
VL: DIQMTQSPSSLSASVGDRVTITCRASSSVNFIHWYQQKPGKAPKPLISATSNLASGVPSRFSGSGSGTDFTLTISSLQPEDFATYYCQQWSSNPWTFGQGTKVEIK
notes: its VL equals the VL of h15H6.v2, which carries LC-W47L as its only light chain change
- binding result [6]: binds
- binding result [7]: binds

B4: h15H6.v2 Fab (Fab, V domains shown)
VH: EVQLVQSGAEVKKPGASVKVSCKASGYTFTDSEMHWVRQAPGQGLEWIGGVDPETDGAAYNQKFKGRATITRDTSTSTAYLELSSLRSEDTAVYYCTRGYDYDYALDYWGQGTLVTVSS
VL: DIQMTQSPSSLSASVGDRVTITCRASSSVNFIHWYQQKPGKAPKPLISATSNLASGVPSRFSGSGSGTDFTLTISSLQPEDFATYYCQQWSSNPWTFGQGTKVEIK
notes: Tested as Fab; also called parent; parental Fab
- Kd [8]: 0.4 nM
- koff [8]: 0.00021 s⁻¹
- kon [8]: 490000 M⁻¹ s⁻¹
- Kd [9]: 0.22 nM
- koff [9]: 0.000158 s⁻¹
- kon [9]: 722000 M⁻¹ s⁻¹
- IC50 FRET (H2-Opt substrate cleavage) [10]: 0.44 nM
- IC90 FRET (H2-Opt substrate cleavage) [10]: 1.87 nM
- Max inhibition (FRET H2-Opt assay) [10]: 91
- Kd [11]: 0.219 nM
- Kd [12]: 0.22 nM
- koff [12]: 0.000158 s⁻¹
- kon [12]: 722000 M⁻¹ s⁻¹
- Kd [13]: 0.25 nM
- koff [13]: 0.00016 s⁻¹
- kon [13]: 630000 M⁻¹ s⁻¹
- IC50, FRET-based H2-Opt blocking assay [14]: ~0.39 nM
- Kd [15]: 0.33 nM
- koff [15]: 0.00014 s⁻¹
- kon [15]: 430000 M⁻¹ s⁻¹
- Kd [16]: 0.219 nM
- Kd [17]: 0.2 nM
- koff [17]: 0.00012 s⁻¹
- kon [17]: 690000 M⁻¹ s⁻¹
- Kd [18]: 0.4 nM
- koff [18]: 0.00015 s⁻¹
- kon [18]: 360000 M⁻¹ s⁻¹

B5: anti-HtrA1 hybridoma antibody clone 19B12 (antibody, V domains shown)
VH: EVKLVESGGGLVEPGGSLKLACVASGFTFSSYIMSWVRQTPEKRLEWVAYISNGGGTTYYSDTIKGRFTISRDNAKNTLYLQMSTLKSEDTAIYFCARQNFRSDGSSMDYWGQGTAVTVSS
VL: NIVVTQSPASLAVSLGQRATISCRASESVDSYGKSFMHWYQQKPGQPPKLLIYLASKLESGVPARFSGSGSRTDFTLTIDPVEADDAATYYCQQNNEDPYTFGGGTKLEIK
notes: Murine mIgG2a, from hybridoma or recombinant from 293 cells; also called m19B12
- binding result [19]: no binding
- IC50, FRET blocking assay, recombinant antibody from 293 cells [20]: ~1.2 nM
- IC50, FRET-based blocking assay (H2-Opt cleavage) [20]: 1.4 nM
- IC50, FRET-based blocking assay (H2-Opt cleavage) [21]: 1 nM
